From US20240240203A1

Target: Ad5 hexon capsid protein with DogTag inserted into the HVR5 loop, on Ad5 virions (Ad5-HVR5-DogTag) (human adenovirus serotype 5 (Ad5)) (UniProt P04133)

Question: “polyhistidine-tagged recombinant DogCatcher with 18 copies of the NANP repeat sequence from the Plasmodium falciparum circumsporozoite protein fused to the C-terminus” was tested. Which ligand coverage (% hexon) did it give?
Answer: > 90%
